Measured values taken from patent publication US20230074615A1.

Key:
[1] = target: catalytic domain of human MMP-9 (cdMMP-9) (human) (UniProt P14780); assay: biolayer interferometry, biotinylated cdMMP-9 on streptavidin biosensors, Fab in solution
[2] = target: catalytic domain of human MMP-9 (cdMMP-9) (human) (UniProt P14780); assay: biolayer interferometry, biotinylated protease on streptavidin sensor, Fab in solution
[3] = target: catalytic domain of human MMP-9 (cdMMP-9) (human) (UniProt P14780); assay: FRET peptide substrate inhibition assay, K1=IC50/(S/Km+1)
[4] = target: catalytic domain of human MMP-9 (cdMMP-9) (human) (UniProt P14780); assay: cell-based or functional assay
[5] = target: catalytic domain of human MMP-9 (cdMMP-9) (human) (UniProt P14780)
[6] = target: catalytic domain of human MMP-9 (cdMMP-9) (human) (UniProt P14780); assay: inhibition of cdMMP-9 proteolytic activity, FRET peptide substrate
[7] = target: catalytic domain of human MMP-9 (cdMMP-9) (human) (UniProt P14780); assay: biolayer interferometry, IgG on protein A sensor, protease in solution

Sequence of UniProt P14780 (P14780 other isoform, or with tags, fused parts or gaps limits assumed): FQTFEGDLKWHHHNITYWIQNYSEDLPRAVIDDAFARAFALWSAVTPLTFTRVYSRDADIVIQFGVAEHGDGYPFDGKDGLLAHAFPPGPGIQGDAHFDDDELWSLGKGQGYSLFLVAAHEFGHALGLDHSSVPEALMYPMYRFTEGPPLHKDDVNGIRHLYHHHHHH

| Binder | koff [1] | kon [1] | Kd [2] | Ki [3] | degradation of type I collagen by cdMMP-9 (SDS-PAGE) [4] | Km of cdMMP-9 on FRET peptide substrate at 63 nM Fab L13 (without Fab: 1.3) [5] | Km of cdMMP-9 on FRET peptide substrate at 125 nM Fab L13 (without Fab: 1.3) [5] | Km of cdMMP-9 on FRET peptide substrate at 250 nM Fab L13 (without Fab: 1.3) [5] | Vmax of cdMMP-9 on FRET peptide substrate at 63 nM Fab L13 (without Fab: 1.3) [5] | Vmax of cdMMP-9 on FRET peptide substrate at 125 nM Fab L13 (without Fab: 1.3) [5] | Vmax of cdMMP-9 on FRET peptide substrate at 250 nM Fab L13 (without Fab: 1.3) [5] | IC50 [6] | Kd [7] |
| --- | --- | --- | --- | --- | --- | --- | --- | --- | --- | --- | --- | --- | --- |
| anti-MMP9 Fab L13 (Fab, V domains shown) VH: EVQLVESGGGLVQPGGSLRLSCAASGFNISSSYIHWVRQAPGKGLEWVASISSSSGYTSYADSVKGRFTISADTSKNTAYLQMNSLRAEDTAVYYCARKYMVFGTRMGWVEHTDFAGQGYYAMDYWGQGTLVTVSS VL: DIQMTQSPSSLSASVGDRVTITCRASQSVSSAVAWYQQKPGKAPKLLIYSASSLYSGVPSRFSGSRSGTDFTLTISSLQPEDFATYYCQQYAALITFGQGTKVEIKR | 0.0044 s⁻¹ | 83000 M⁻¹ s⁻¹ | 120 nM | 150 nM | 4% | 3.3 µM | 4.6 µM | 5.1 µM | 0.7 ΔRFU/s | 0.7 ΔRFU/s | 0.6 ΔRFU/s | 260 nM |  |
| anti-MMP9 IgG L13 (antibody, V domains shown) VH: EVQLVESGGGLVQPGGSLRLSCAASGFNISSSYIHWVRQAPGKGLEWVASISSSSGYTSYADSVKGRFTISADTSKNTAYLQMNSLRAEDTAVYYCARKYMVFGTRMGWVEHTDFAGQGYYAMDYWGQGTLVTVSS VL: DIQMTQSPSSLSASVGDRVTITCRASQSVSSAVAWYQQKPGKAPKLLIYSASSLYSGVPSRFSGSRSGTDFTLTISSLQPEDFATYYCQQYAALITFGQGTKVEIKR |  |  |  | 110 nM |  |  |  |  |  |  |  | 200 nM | 53 nM |
| anti-MMP9 Fab H25 (Fab, V domains shown) VH: EVQLVESGGGLVQPGGSLRLSCAASGFNIYSSSMHWVRQAPGKGLEWVASIYSYYGYTYYADSVKGRFTISADTSKNTAYLQMNSLRAEDTAVYYCARCKLYTSYMIPVGSDSVNRCMSSYGMDYWGQGTLVTVSS VL: DIQMTQSPSSLSASVGDRVTITCRASQSVSSAVAWYQQKPGKAPKLLIYSASSLYSGVPSRFSGSRSGTDFTLTISSLQPEDFATYYCQQGGGASLITFGQGTKVEIKR | 0.031 s⁻¹ | 69000 M⁻¹ s⁻¹ | 450 nM | 290 nM |  |  |  |  |  |  |  | 520 nM |  |

Binders with a lower Ki [3], results first:

| koff [1] | kon [1] | Kd [2] | Ki [3] | degradation of type I collagen by cdMMP-9 (SDS-PAGE) [4] | Km of cdMMP-9 on FRET peptide substrate at 63 nM Fab L13 (without Fab: 1.3) [5] | Km of cdMMP-9 on FRET peptide substrate at 125 nM Fab L13 (without Fab: 1.3) [5] | Km of cdMMP-9 on FRET peptide substrate at 250 nM Fab L13 (without Fab: 1.3) [5] | Vmax of cdMMP-9 on FRET peptide substrate at 63 nM Fab L13 (without Fab: 1.3) [5] | Vmax of cdMMP-9 on FRET peptide substrate at 125 nM Fab L13 (without Fab: 1.3) [5] | Vmax of cdMMP-9 on FRET peptide substrate at 250 nM Fab L13 (without Fab: 1.3) [5] | IC50 [6] | Kd [7] | Binder |
| --- | --- | --- | --- | --- | --- | --- | --- | --- | --- | --- | --- | --- | --- |
| 0.0048 s⁻¹ | 49000 M⁻¹ s⁻¹ | 98 nM | 66 nM |  |  |  |  |  |  |  |  |  | anti-MMP9 Fab H3 (Fab, V domains shown) VH: EVQLVESGGGLVQPGGSLRLSCAASGFNIYSSSMHWVRQAPGKGLEWVAYIYSSYGYTYYADSVKGRFTISADTSKNTAYLQMNSLRAEDTAVYYCARRFEPGLLKRNKRWISYTLCEAGYGMDYWGQGTLVTVSS VL: DIQMTQSPSSLSASVGDRVTITCRASQSVSSAVAWYQQKPGKAPKLLIYSASSLYSGVPSRFSGSRSGTDFTLTISSLQPEDFATYYCQQASHLITFGQGTKVEIKR |
|  |  |  | 51 nM |  |  |  |  |  |  |  | 92 nM | 71 nM | anti-MMP9 IgG H3 (antibody, V domains shown) VH: EVQLVESGGGLVQPGGSLRLSCAASGFNIYSSSMHWVRQAPGKGLEWVAYIYSSYGYTYYADSVKGRFTISADTSKNTAYLQMNSLRAEDTAVYYCARRFEPGLLKRNKRWISYTLCEAGYGMDYWGQGTLVTVSS VL: DIQMTQSPSSLSASVGDRVTITCRASQSVSSAVAWYQQKPGKAPKLLIYSASSLYSGVPSRFSGSRSGTDFTLTISSLQPEDFATYYCQQASHLITFGQGTKVEIKR |
